Series [1] has as its system peptide 23, Dap-substituted pyrene derivative at Y+3.
Series [2] concerns peptide 25, Dab-modified pyrene analogue at Y-2.

Sequence of FynT (chain, as listed by the source): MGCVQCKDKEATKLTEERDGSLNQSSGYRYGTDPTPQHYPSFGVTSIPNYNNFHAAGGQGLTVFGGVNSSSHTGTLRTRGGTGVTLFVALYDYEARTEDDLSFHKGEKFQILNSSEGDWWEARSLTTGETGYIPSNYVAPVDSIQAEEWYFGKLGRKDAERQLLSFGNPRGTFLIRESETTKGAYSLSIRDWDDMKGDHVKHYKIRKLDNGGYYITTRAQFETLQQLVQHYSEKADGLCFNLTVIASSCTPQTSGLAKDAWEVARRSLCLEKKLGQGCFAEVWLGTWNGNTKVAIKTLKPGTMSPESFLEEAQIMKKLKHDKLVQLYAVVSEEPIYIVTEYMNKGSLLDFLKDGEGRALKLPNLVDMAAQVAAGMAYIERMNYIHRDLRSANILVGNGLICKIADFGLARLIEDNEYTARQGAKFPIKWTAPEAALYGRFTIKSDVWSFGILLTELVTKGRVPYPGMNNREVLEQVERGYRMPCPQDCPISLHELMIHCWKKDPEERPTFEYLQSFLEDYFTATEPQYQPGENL
Sequence of TrkA (chain, as listed by the source): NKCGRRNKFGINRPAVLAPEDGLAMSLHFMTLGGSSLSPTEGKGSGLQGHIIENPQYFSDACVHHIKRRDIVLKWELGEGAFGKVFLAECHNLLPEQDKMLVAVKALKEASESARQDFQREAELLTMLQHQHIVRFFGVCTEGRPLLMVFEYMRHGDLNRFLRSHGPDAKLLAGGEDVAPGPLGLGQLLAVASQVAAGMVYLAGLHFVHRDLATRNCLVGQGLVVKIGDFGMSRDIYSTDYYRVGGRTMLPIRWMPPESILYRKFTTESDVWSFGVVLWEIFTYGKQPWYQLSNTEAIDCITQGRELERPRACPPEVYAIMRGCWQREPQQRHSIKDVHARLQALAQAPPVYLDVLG
Sequence of Yes (chain, as listed by the source): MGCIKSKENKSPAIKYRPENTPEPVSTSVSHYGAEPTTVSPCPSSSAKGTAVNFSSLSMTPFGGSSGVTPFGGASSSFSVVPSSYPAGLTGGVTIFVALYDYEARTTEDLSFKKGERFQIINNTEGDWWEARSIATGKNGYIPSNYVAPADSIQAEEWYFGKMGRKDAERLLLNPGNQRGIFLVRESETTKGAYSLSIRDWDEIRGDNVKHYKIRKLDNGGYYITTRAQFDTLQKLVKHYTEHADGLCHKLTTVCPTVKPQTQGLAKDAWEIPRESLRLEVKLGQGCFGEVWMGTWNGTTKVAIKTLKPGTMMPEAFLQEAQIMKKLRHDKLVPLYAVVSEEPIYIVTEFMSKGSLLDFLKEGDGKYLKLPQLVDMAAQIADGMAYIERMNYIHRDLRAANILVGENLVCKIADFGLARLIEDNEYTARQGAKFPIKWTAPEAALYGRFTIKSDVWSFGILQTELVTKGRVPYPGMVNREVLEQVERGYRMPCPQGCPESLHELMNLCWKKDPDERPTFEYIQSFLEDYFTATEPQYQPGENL

Take EGF: the “phosphorylation of the peptide (fluorescence)” value in series [1] and in series [2] was “unable to effectively catalyze the phosphorylation of either 23 or 25” throughout.
As to Fgr, in series [1], the Michaelis-Menten constant (Km) was found to be 54 µM and the Vmax was 2.3 µmol/min/mg.
For FynT the same measures were 69 µM and 0.24 µmol/min/mg.
LynA: the Km in series [1] is 140 µM; in series [2], 43 µM. In addition, the Vmax in series [1] and in series [2] was 2.6 µmol/min/mg in each case.
TrkA: in series [1], the Km stood at 350 µM and the Vmax stood at 1.1 µmol/min/mg.
With Yes, in series [1], the Michaelis-Menten constant (Km) stood at 37 µM and the Vmax turned out to be 3.3 µmol/min/mg.

Values taken from patent publication US20060211075.
